# Source: patent US20220411483A1 (Chugai, published 2022)
# Substitutions are numbered along the chain they refer to.
# T1: human FcγRIIb extracellular domain with C-terminal His tag (human, UniProt P31994 43-217)
# T1 construct: extracellular domain; also called FcgRIIb
# T1 sequence (looked up): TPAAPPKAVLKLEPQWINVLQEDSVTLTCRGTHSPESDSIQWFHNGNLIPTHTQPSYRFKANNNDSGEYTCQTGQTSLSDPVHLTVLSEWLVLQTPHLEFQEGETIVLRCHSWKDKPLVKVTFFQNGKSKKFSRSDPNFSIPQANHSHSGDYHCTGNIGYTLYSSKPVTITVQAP
# T2: human FcγRIIa R type extracellular domain with C-terminal His tag (human, UniProt P12318 34-217)
# T2 construct: extracellular domain; also called FcgRIIaR
# T2 sequence (looked up): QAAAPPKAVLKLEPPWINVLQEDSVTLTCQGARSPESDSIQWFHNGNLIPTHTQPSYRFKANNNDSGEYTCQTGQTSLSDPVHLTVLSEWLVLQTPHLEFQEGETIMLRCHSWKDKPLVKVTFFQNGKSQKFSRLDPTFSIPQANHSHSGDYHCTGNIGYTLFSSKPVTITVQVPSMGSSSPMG
# T3: human FcγRIIa H type extracellular domain with C-terminal His tag (human, UniProt P12318 34-217)
# T3 construct: extracellular domain; also called FcgRIIaH
# T3 sequence (looked up): T2 sequence (looked up) with R134H
# T4: FcgRIIb (human, UniProt P31994 43-217)
# T4 construct: extracellular domain; also called FcγRIIb
# T4 sequence (looked up): T1 sequence (looked up)
# T5: FcgRIIaR (human, UniProt P12318 34-217)
# T5 construct: extracellular domain; also called FcγRIIa R type; FcγRIIa (R type)
# T5 sequence (looked up): T2 sequence (looked up)
# B1: IL6R-P555/IL6R-L (antibody, human IgG1, kappa)
# heavy: QVQLQESGPGLVKPSETLSLTCAVSGHSISHDHAWSWVRQPPGEGLEWIGFISYSGITNYNPSLQGRVTISRDNSKNTLYLQMNSLRAEDTAVYYCARSLARTTAMDYWGEGTLVTVSSASTKGPSVFPLAPSSKSTSGGTAALGCLVKDYFPEPVTVSWNSGALTSGVHTFPAVLQSSGLYSLSSVVTVPSSSLGTQTYICNVNHKPSNTKVDKKVEPKSCDKTHTCPPCPAPELLGDDSVFLFPPKPKDTLMISRTPEVTCVVVDVSDEDGEVKFNWYVDGVEVHNAKTKPREEQYNSTYRVVSVLTVLHQDWLNGKEYKCKVSNKALPAPIEKTISKAKGQPREPQVYTLPPSRDELTKNQVSLTCLVKGFYPSDIAVEWESNGQPENNYKTTPPVLDSDGSFFLYSKLTVDKSRWQQGNVFSCSVMHEALHNHYTQKSLSLSP
# light: not shown
# B2: IL6R-P786/IL6R-L (antibody, human IgG1, kappa)
# heavy: B1 heavy with D270H, G273P, S300A, A329G, A332S, P333S
# light: not shown
# B3: IL6R-P785/IL6R-L (antibody, human IgG1, kappa)
# heavy: B1 heavy with E235D, D239G, D270H, G273P, S300A, A329G, A332S, P333S
# light: not shown
# B4: IL6R-P787/IL6R-L (antibody, human IgG1, kappa)
# heavy: B1 heavy with E235D, D270H, G273P, S300A, A329G, A332S, P333S
# light: not shown
# B5: IL6R-P769/IL6R-L (antibody, human IgG1, kappa)
# heavy: B1 heavy with D239G, V266I, D270H
# light: not shown
# B6: IL6R-P783/IL6R-L (antibody, human IgG1, kappa)
# heavy: B1 heavy with D270H, G273P, A329G, A332S, P333S
# light: not shown
# B7: IL6R-P781/IL6R-L (antibody, human IgG1, kappa)
# heavy: B1 heavy with D239G, D270H, G273P, S300A, A329G, A332S, P333S
# light: not shown
# B8: IL6R-P786/IL6R-L (antibody, human IgG1, kappa)
# heavy: B1 heavy with D270H, G273P, S300A, A329G, A332S, P333S
# light: not shown
# B9: IL6R-P787/IL6R-L (antibody, human IgG1, kappa)
# heavy: B1 heavy with E235D, D270H, G273P, S300A, A329G, A332S, P333S
# light: not shown
# B10: IL6R-P772/IL6R-L (antibody, human IgG1, kappa)
# heavy: B1 heavy with D239G, V266I, D270H, K324E
# light: not shown
# B11: IL6R-P777/IL6R-L (antibody, human IgG1, kappa)
# heavy: B1 heavy with E235D, D239G, V266I, S269A, D270E, K324A
# light: not shown
# B12: IL6R-P775/IL6R-L (antibody, human IgG1, kappa)
# heavy: B1 heavy with D239G, D270H, K324A
# light: not shown
# B13: IL6R-P785/IL6R-L (antibody, human IgG1, kappa)
# heavy: B1 heavy with E235D, D239G, D270H, G273P, S300A, A329G, A332S, P333S
# light: not shown
# B14: IL6R-P782/IL6R-L (antibody, human IgG1, kappa)
# heavy: B1 heavy with E235D, D239G, D270H, G273P, A329G, A332S, P333S
# light: not shown
# B15: IL6R-P771/IL6R-L (antibody, human IgG1, kappa)
# heavy: B1 heavy with D239G, V266I, D270H, K324A
# light: not shown
# B16: IL6R-P774/IL6R-L (antibody, human IgG1, kappa)
# heavy: B1 heavy with D239G, S269A, D270E, K324E
# light: not shown
# B17: IL6R-P778/IL6R-L (antibody, human IgG1, kappa)
# heavy: B1 heavy with E235D, D239G, V266I, S269A, D270E, K324E
# light: not shown
# notes: also called IL6B-P778/IL6R-L
# B18: IL6R-P780/IL6R-L (antibody, human IgG1, kappa)
# heavy: B1 heavy with D239G, V266I, S269A, D270E, K324E
# light: not shown
# B19: IL6R-P784/IL6R-L (antibody, human IgG1, kappa)
# heavy: B1 heavy with E235D, D270H, G273P, A329G, A332S, P333S
# light: not shown
# B20: IL6R-P770/IL6R-L (antibody, human IgG1, kappa)
# heavy: B1 heavy with D239G, V266I, D270H, A329G, A332S, P333S
# light: not shown
# B21: IL6R-P776/IL6R-L (antibody, human IgG1, kappa)
# heavy: B1 heavy with D239G, D270H, K324E
# light: not shown
# B22: IL6R-P779/IL6R-L (antibody, human IgG1, kappa)
# heavy: B1 heavy with D239G, V266I, S269A, D270E, K324A
# light: not shown
# B23: IL6R-P773/IL6R-L (antibody, human IgG1, kappa)
# heavy: B1 heavy with D239G, S269A, D270E, K324A
# light: not shown
# Biological target: T1, human FcγRIIb extracellular domain with …
# Assay: SPR, antibody captured, FcgR analyte
row,Binder,Kd
1,B1,210 nM
2,B2,8500 nM
3,B3,7900 nM
4,B4,4600 nM

# Biological target: T6, human FcγRIa extracellular domain with C-terminal His tag (human, UniProt P12314 16-292)
# T6 construct: Whole entry named; also called FcgRIa
# Assay: SPR, antibody captured, FcgR analyte
# T6 sequence (P12314 16-292): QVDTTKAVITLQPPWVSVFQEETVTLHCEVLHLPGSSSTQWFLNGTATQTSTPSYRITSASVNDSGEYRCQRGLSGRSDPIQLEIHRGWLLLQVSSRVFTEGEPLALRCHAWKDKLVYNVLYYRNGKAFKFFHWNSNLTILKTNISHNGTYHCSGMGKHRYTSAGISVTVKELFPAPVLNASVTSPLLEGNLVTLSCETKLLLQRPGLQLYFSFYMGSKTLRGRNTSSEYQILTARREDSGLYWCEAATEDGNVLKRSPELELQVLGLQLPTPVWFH
row,Binder,Kd
1,B1,11 nM
2,B2,120 nM
3,B3,23 nM
4,B4,56 nM

# Biological target: T2, human FcγRIIa R type extracellular …
# Assay: SPR, antibody captured, FcgR analyte
row,Binder,Kd
1,B1,2800 nM

# Biological target: T7, human complement C1q (human, UniProt P02745 23-245; P02746 28-253; P02747 29-245)
# T7 construct: Bought (PROSPEC or Calbiochem); also called human C1q
# Assay: SPR, C1q bound per antibody captured on Protein L
# Description: The interaction between an antibody and human C1q was analyzed using Biacore T200 (GE Healthcare). HBS-EP+ (GE Healthcare) was used as the running buffer, and the measurement temperature was set at 25° C. Chips produced by immobilizing Protein L (ACTIGEN or BioVision) onto Series S sensor Chip CM4 (GE Healthcare) by amine coupling were used.
# The antibodies of interest were captured onto these sensor chips, and allowed to interact with human complement C1q (PROSPEC or Calbiochem) diluted in the running buffer. The amount of antibody binding was determined, and comparisons were made among the antibodies. However, since the amount of C1q bound depends on the amount of captured antibodies, corrected values obtained by dividing the amount of C1q bound by the amount of each antibody captured were compared. Furthermore, by reaction with 10 mM glycine-HCl, pH 1.5, the antibodies captured onto the sensor chips were washed, and the sensor chips were recycled and reused.
# T7 sequence (P02745 23-245 limits assumed, chain 1 of 3): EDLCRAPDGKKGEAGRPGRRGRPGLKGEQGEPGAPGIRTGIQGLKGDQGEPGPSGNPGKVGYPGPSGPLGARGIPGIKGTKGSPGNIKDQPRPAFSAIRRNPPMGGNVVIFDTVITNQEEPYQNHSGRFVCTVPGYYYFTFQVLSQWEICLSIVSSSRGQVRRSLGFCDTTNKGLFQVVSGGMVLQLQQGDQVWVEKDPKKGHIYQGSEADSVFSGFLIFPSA
# T7 sequence (P02746 28-253 limits assumed, chain 2 of 3): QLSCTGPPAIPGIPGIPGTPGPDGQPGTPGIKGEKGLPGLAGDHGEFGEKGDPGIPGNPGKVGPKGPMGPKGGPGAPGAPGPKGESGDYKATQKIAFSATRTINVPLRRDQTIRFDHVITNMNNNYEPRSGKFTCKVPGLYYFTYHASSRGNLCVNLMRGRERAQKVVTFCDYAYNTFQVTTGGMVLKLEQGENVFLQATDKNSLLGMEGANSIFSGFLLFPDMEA
# T7 sequence (P02747 29-245 limits assumed, chain 3 of 3): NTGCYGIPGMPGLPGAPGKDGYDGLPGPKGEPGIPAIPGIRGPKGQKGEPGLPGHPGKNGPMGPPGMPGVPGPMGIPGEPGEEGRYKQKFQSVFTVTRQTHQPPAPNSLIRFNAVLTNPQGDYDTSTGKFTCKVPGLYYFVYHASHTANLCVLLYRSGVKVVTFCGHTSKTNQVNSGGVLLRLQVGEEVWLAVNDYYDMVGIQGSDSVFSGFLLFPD
row,Binder,Amount of C1q-binding when that for G1d is Defined as 100
1,B5,31.3 G1d=100
2,B6,13.3 G1d=100
3,B7,24 G1d=100
4,B8,12.9 G1d=100
5,B9,24 G1d=100
6,B10,21.6 G1d=100
7,B11,12.4 G1d=100
8,B12,21.8 G1d=100
9,B13,1.3 G1d=100
10,B14,1.3 G1d=100
11,B15,14.3 G1d=100
12,B16,15.2 G1d=100
13,B17,23.9 G1d=100
14,B18,12.9 G1d=100
15,B19,24.2 G1d=100
16,B20,1.5 G1d=100
17,B21,0.7 G1d=100
18,B22,0.8 G1d=100
19,B23,1.7 G1d=100

# Biological target: T1, human FcγRIIb extracellular domain with …
# Assay: SPR, KD of IL6R-G1d/IL6R-L divided by KD of variant
row,Binder,Relative FcgRIIb-binding Activity
1,B1,10
2,B2,0.2
3,B3,0.3
4,B4,0.5

# Biological target: T6, human FcγRIa extracellular domain with …
# Assay: as above
row,Binder,Relative FcgRIa-binding Activity
1,B1,0.029
2,B2,0.003
3,B3,0.014
4,B4,0.006

# Biological target: T3, human FcγRIIa H type extracellular …
# Assay: as above
row,Binder,Relative FcgRIIaH-binding Activity
1,B1,0.021
2,B2,0.006
3,B3,0.007
4,B4,0.007

# Biological target: T2, human FcγRIIa R type extracellular …
# Assay: as above
row,Binder,Relative FcgRIIaR-binding Activity
1,B1,0.39
2,B2,0.02
3,B3,0.01
4,B4,0.02

# Biological target: T8, human FcγRIIIa V type extracellular domain with C-terminal His tag (human, UniProt P08637 17-208)
# T8 construct: extracellular domain; also called FcgRIIIaV
# Assay: as above
# T8 sequence (P08637 17-208 F176V): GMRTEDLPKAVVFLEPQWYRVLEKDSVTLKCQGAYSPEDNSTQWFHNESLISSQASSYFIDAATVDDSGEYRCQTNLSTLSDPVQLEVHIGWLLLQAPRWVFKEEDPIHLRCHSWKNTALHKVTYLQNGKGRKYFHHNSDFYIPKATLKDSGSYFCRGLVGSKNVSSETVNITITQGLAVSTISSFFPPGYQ
row,Binder,Relative FcgRIIIaV-binding Activity
1,B1,0.009
2,B2,0.01
3,B3,0.009
4,B4,0.01

# Biological target: T4, FcgRIIb
# Assay: SPR, amount bound per captured antibody
row,Binder,Relative FcgRIIb-binding Activity
1,B5,196 IL6R-G1d/IL6R-L=100
2,B6,97.9 IL6R-G1d/IL6R-L=100
3,B7,51.1 IL6R-G1d/IL6R-L=100
4,B8,62.4 IL6R-G1d/IL6R-L=100
5,B9,84 IL6R-G1d/IL6R-L=100
6,B10,196 IL6R-G1d/IL6R-L=100
7,B11,198 IL6R-G1d/IL6R-L=100
8,B12,180 IL6R-G1d/IL6R-L=100
9,B13,58.4 IL6R-G1d/IL6R-L=100
10,B14,95.1 IL6R-G1d/IL6R-L=100
11,B15,195 IL6R-G1d/IL6R-L=100
12,B16,200 IL6R-G1d/IL6R-L=100
13,B17,198 IL6R-G1d/IL6R-L=100
14,B18,200 IL6R-G1d/IL6R-L=100
15,B19,118 IL6R-G1d/IL6R-L=100
16,B20,188 IL6R-G1d/IL6R-L=100
17,B21,190 IL6R-G1d/IL6R-L=100
18,B22,201 IL6R-G1d/IL6R-L=100
19,B23,192 IL6R-G1d/IL6R-L=100

# Biological target: T5, FcgRIIaR
# Assay: SPR, amount bound per captured antibody
row,Binder,Relative FcgRIIaR-binding Activity
1,B5,86.7 IL6R-G1d/IL6R-L=100
2,B6,20.5 IL6R-G1d/IL6R-L=100
3,B7,7.8 IL6R-G1d/IL6R-L=100
4,B8,11.5 IL6R-G1d/IL6R-L=100
5,B9,14.7 IL6R-G1d/IL6R-L=100
6,B10,84.3 IL6R-G1d/IL6R-L=100
7,B11,97.5 IL6R-G1d/IL6R-L=100
8,B12,64.2 IL6R-G1d/IL6R-L=100
9,B13,9.1 IL6R-G1d/IL6R-L=100
10,B14,14.2 IL6R-G1d/IL6R-L=100
11,B15,75.8 IL6R-G1d/IL6R-L=100
12,B16,98.8 IL6R-G1d/IL6R-L=100
13,B17,105 IL6R-G1d/IL6R-L=100
14,B18,101 IL6R-G1d/IL6R-L=100
15,B19,28.6 IL6R-G1d/IL6R-L=100
16,B20,78.2 IL6R-G1d/IL6R-L=100
17,B21,77.4 IL6R-G1d/IL6R-L=100
18,B22,96 IL6R-G1d/IL6R-L=100
19,B23,87.3 IL6R-G1d/IL6R-L=100
